Assay [1] has as its target T1, hiR1-FL-WT-T7 (human, UniProt Q96CC6 1-855).
T1 construct: on MEF-DKO cells
T1 sequence: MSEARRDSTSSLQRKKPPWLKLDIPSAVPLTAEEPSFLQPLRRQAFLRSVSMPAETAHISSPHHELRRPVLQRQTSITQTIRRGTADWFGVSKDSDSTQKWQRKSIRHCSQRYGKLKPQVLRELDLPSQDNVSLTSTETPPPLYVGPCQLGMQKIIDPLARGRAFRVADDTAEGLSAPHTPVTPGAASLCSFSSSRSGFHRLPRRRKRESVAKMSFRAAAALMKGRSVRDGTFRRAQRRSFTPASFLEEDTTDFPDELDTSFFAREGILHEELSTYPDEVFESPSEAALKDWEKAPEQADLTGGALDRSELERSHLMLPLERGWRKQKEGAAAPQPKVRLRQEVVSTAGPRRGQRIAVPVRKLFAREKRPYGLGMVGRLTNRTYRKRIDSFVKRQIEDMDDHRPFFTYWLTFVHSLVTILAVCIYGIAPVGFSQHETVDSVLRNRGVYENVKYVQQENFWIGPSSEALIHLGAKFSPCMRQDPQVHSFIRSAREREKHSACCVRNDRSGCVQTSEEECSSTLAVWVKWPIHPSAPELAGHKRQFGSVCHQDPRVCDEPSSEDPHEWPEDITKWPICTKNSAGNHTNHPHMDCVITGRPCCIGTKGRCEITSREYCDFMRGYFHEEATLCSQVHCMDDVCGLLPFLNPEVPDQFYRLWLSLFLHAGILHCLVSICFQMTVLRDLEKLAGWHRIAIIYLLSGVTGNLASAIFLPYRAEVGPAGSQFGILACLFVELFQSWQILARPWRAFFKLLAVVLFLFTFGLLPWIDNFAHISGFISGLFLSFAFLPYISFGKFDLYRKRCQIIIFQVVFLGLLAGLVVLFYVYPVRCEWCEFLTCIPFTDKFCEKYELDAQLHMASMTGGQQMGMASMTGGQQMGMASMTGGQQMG
The assay can be described thus: FACS, MEF-DKO-hiR1-FL-WT-T7 cells. On the technique in general: A flow cytometer gives signals particle by particle.

The target in assay [2] is T2, miR2-FL-WT-T7 (mouse, UniProt Q80WQ6 1-827).
T2 construct: on MEF-DKO cells
T2 sequence: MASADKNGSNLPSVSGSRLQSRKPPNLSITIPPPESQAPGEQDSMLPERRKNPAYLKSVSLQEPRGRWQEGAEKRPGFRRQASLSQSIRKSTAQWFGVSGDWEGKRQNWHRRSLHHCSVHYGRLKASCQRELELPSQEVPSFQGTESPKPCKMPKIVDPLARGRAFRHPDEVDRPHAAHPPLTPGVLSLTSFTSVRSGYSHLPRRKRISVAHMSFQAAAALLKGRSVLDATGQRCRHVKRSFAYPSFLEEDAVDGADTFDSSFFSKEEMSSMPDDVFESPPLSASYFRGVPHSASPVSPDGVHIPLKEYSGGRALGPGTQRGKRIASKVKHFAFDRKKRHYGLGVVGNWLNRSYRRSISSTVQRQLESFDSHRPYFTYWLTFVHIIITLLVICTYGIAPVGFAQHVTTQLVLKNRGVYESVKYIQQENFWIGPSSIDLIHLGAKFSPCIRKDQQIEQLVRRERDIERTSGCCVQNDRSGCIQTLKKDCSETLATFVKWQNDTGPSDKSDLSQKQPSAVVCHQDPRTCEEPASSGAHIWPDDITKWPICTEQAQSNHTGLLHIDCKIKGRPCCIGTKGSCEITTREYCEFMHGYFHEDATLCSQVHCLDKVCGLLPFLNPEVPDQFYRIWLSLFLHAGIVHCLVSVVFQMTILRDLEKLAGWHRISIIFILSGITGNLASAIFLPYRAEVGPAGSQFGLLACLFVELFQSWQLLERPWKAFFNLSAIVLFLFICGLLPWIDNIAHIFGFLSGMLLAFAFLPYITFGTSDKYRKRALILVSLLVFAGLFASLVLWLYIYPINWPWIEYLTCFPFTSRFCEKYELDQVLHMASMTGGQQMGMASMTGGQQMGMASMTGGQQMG
The experiment in a line: FACS on MEF-DKO-miR2-FL-WT-T7 cells.

B1: antibody 48 (antibody, V domains shown)
VH: QVQLQQSGTELVRPGTSVKVSCKASGYAFTNYLIEWVKQRPGQGLEWIGVINPGSGFTKYNEKFKGKATLTADKSSSTVYMHLSSLTSEDSAVYFCARGLYRAMDYWGQGTSVTVSS
VL: DIQMTQSPASQSASLGESVTITCLASQTIATWLAWYQQKPGKSPQLLIYGATTLADGVPSRFSGGGSGTKFSFKISSLQAEDFVSYYCQQLYSTPYTFGGGTKLEIK
notes: mouse IgG, kappa light chain; also called clone #48; purified antibody 48
Regarding B1, the binding result in assay [1] is reported as “no binding (tested: 3 µg/ml)”.

B2: antibody 50 (antibody, V domains shown)
VH: QVQLQQSGAELVRPGASVKVSCKASGYAFSNYLIEWVKQRPGQGLEWIGVINPGSGFTKYNEKFKGKATLTADKSSSTAYMQLSSLTSEDSAVYFCARGLYRAMDYWGQGTSVTVSS
VL: DIQMTQSPASQSASLGESVTITCLASQTIGTWLAWYQQKPGKSPQLLIYAAASLADGVPSRFSGGGSGTKFSFKISSLQAEDFVNYYCQQIYSTPYTFGGGTKLEIK
notes: mouse IgG, kappa light chain; also called clone #50; purified antibody 50
B2: in assay [2], the binding result is “no binding (tested: 3 µg/ml)”.

The values are drawn from US20240287172A1 (SCIRHOM, published 2024).
